Article doi:10.1101/2022.06.01.494398

Target: CERTL (long isoform of the ceramide transport protein CERT; GPBP, COL4A3BP) (UniProt Q9Y5P4)
Test: SEC-MALS of self-association
Settings: reference: hyperphosphorylated wild-type StrepII-CERTL (CERTLP); sites S132

Sequence of CERTL (long isoform of the ceramide transport protein CERT; GPBP, COL4A3BP) (Q9Y5P4 whole entry S132A, canonical isoform): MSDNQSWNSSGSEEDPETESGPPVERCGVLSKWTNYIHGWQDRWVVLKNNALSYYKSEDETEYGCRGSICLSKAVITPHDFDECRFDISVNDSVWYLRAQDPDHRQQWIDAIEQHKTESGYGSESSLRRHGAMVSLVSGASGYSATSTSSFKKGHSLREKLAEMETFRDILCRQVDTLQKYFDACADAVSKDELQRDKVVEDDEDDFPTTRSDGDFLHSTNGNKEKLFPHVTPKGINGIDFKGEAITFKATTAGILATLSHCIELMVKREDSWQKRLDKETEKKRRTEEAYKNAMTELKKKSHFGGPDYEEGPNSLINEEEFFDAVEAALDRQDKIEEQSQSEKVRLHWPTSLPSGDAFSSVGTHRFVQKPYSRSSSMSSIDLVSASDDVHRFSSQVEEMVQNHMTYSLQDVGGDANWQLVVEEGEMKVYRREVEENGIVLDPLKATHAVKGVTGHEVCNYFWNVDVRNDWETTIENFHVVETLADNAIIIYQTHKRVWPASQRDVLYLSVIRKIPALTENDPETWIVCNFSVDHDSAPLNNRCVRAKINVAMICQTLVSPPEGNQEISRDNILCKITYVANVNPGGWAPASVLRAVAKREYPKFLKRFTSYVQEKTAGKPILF

## CERTL (long isoform of the ceramide transport protein CERT; GPBP, COL4A3BP) (from UniProt Q9Y5P4) StrepII-CERTL S132A (hypophosphorylated)
  other: observed mass (expected trimer 215.7): same; reference 184.3
